Positions count from the first letter of the chain named.
B1: human iduronate-2-sulfatase (hIDS), co-expressed with human formylglycine-generating enzyme (HsFGE) (enzyme)
chain: SETQANSTTDALNVLLIIVDDLRPSLGCYGDKLVRSPNIDQLASHSLLFQNAFAQQAVCAPSRVSFLTGRRPDTTRLYDFNSYWRVHAGNFSTIPQYFKENGYVTMSVGKVFHPGISSNHTDDSPYSWSFPPYHPSSEKYENTKTCRGPDGELHANLLCPVDVLDVPEGTLPDKQSTEQAIQLLEKMKTSASPFFLAVGYHKPHIPFRYPKEFQKLYPLENITLAPDPEVPDGLPPVAYNPWMDIRQREDVQALNISVPYGPIPVDFQRKIRQSYFASVSYLDTQVGRLLSALDDLQLANSTIIAFTSDHGWALGEHGEWAKYSNFDVATHVPLIFYVPGRTASLPEAGEKLFPYLDPFDSASQLMEPGRQSMDLVELVSLFPTLAGLAGLQVPPRCPVPSFHVELCREGKNLLKHFRFRDLEEDPYLPGNPRELIAYSQYPRPSDIPQWNSDKPSLKDIKIMGYSIRTIDYRYTVWVGFNPDEFLANFSDIHAGELYFVDSDPLQDHNMYNDSQGGDLFQLLMP
modifications: cysteine 84 post-translationally modified to formylglycine (fGly); N-linked glycans
notes: iduronate-2-sulfatase (IDS), human; 550-residue protein; also called human IDS; hIDS + HsFGE
B2: IDS-A3, reconstructed ancestral iduronate-2-sulfatase (last common ancestor of primates and rodents), co-expressed with HsFGE (enzyme)
chain: SETQANSTTDALNVLLIIVDDLRPSLGCYGDKLVRSPNIDQLASHSLLFQNAFAQQAVCAPSRVSFLTGRRPDTTRLYDFNSYWRVHAGNFSTIPQYFKENGYVTMSVGKVFHPGISSNHSDDSPYSWSFPPYHPSSEKYENTKTCRGPDGELHANLLCPVDVADVPEGTLPDKQSTEQAIRLLEKMKTSASPFFLAVGYHKPHIPFRYPKEFQKLYPLENITLAPDPQVPDGLPPVAYNPWMDIRQREDVQALNISVPYGPIPVDFQRKIRQSYFASVSYLDTQVGHLLSALDDLQLANSTIVAFTSDHGWALGEHGEWAKYSNFDVTTRVPLMFYVPGRTAPLPEAGEKLFPYLDPFDSASELMEPGRQTMDLVELVSLFPTLAGLAGLQVPPRCPVPSFHVELCREGQNLLKHFRFHDLEEDPHLHGNPRELIAYSQYPRPADSPQWNSDKPSLKDIKIMGYSIRTIDYRYTVWVGFNPDEFLANFSDIHAGELYFVDSDPLQDHNMYNDSQGGDLPQSLMP
modifications: cysteine 84 post-translationally modified to formylglycine (fGly); N-linked glycans
B3: IDS-A3_T354A, variant of ancestral IDS-A3 with the reversed mutation at position 354, co-expressed with HsFGE (enzyme)
chain: B2 chain with T329A
modifications: cysteine 84 post-translationally modified to formylglycine (fGly); N-linked glycans

Biological target: recombinant human mannose-6-phosphate receptor (M6PR) (human, UniProt P11717 41-2491)
Assay: SPR; Biacore T200, single cycle kinetics mode; IDS enzymes co-expressed with HsFGE on recombinant human M6P receptor; who was immobilised is not given in the source
Settings: both partners purified

B1 and B2 are within 1.5-fold of each other in Kd: 32 nM for the first, 26 nM for the second.

B3 showed a Kd of 46 nM.
